Test results: patent US20160311923A1 (SORRENTO THERAPEUTICS, published 2016)
Where a chain is given by its changes, count along the chain named.

B1: D03 (antibody, V domains shown)
VH: QVQLVESGGGLVKPGGSLRLSCAASGFTFSSYSMNWVRQAPGKGLEWVSSISSSSSYIYYADSVKGRFTISRDNSKNTLYLQMNSLRDEDTAVYYCAREILTGYYPDAFDMWGQGTMVTVSS
VL: SYELMQPPSVSVAPGKTARITCGGNNIGSKSVHWYQQKPGQAPVVVIYYDSDRPSGIPERFSGSNSGNTATLTISRVEAGDEADYYCQVWDSSSDHYVFGTGTKLTVL
B2: C03 (antibody, V domains shown)
VH: QVQLVQSGAEVKKPGASVKVSCKASGYTFTSYGISWVRQAPGQGLEWMGWISAYNGNTNYAQKLQGRVTMTTDTSTSTAYMELRSLRSDDTAVYYCAREAYAWGAFDIWGQGTMVTVSS
VL: B1 VL with V45L, S94R, Y97A, T101G
B3: D08 (antibody, V domains shown)
VH: QVQLVESGGGLVKPGGSLRLSCAASGFTSSSYVLNWVRQAPGKGLEWVSSISSRGSYIYYADSVKGRFTISRDNAKNSLYLQMNSLRAEDTAVYYCARERAGFSPVNAFDIWGQGTMVTVSS
VL: QSVLTQPASVSGSPGQSITISCTGSSSDVGSYNLVSWYQQHPGKAPKLMIYDDNRRPSGISTRFSGSKSGNTASLTVSGLQAEDEAYYYCSSYAGRNNDVIFGGGTQLTVL
B4: D10 (antibody, V domains shown)
VH: QVQLVESGGGLVQPGGSLRLACAASGFTFSNYEMNWVRQAPGKGLEWVATISDDSVYKYYADSVKGRFTISRDNSKALFYLQMDSLTFEDTAIYYCARDPGGDSLGYFQHWGQGTLVTVSS
VL: QAGLTQPPSASASPGDSVTLTCTLSSDHSDYKVDWYQQRPGKGPRFVMRVGTGGIVGVKGDGIPDRFSVWGSGPNRYLTIKNIQEEDESDYHCGSDHGSGNNYVYVFGGGTKLTVL
B5: B01 (antibody, V domains shown)
VH: B4 VH
VL: QAGLTQPPSASASPGDSVTLTCTLSSDHSDYKVDWYQQRPGKGPRFVMRVGTGGIVGVKVSNRFSGSKSGNTASLTISGLQAEDEADYYCSSYTDSSTLDVVFGGGTKLTVL
B6: B08 (antibody, V domains shown)
VH: QVQLVQSGAEVKKPGASVKVSCKASGYTFTSHYGISWVRQAPGQGLEWMGSITPHNGKTNYVQMFQGRVTMTTDTSTRTVYMELRNLRSDDTAVYYCARDWNFADFDYWGQGTLVTVSS
VL: QSVLTQPPSASGSPGQSVTISCTGTSSDVGGYNFVSWYQQHPGKAPKLMIYDVTNRPSGVSNRFSGSKSGNTASLTISGLQAEDEADYYCSSYTSSSTPYVFGTGTKLTVL
B7: A04 (antibody, V domains shown)
VH: QVQLQQSGPGLVQPSQTLSLTCDISGDSVSSTGAAWNWIRQSPSRGLEWLGRTYYRSKWYNDYALSVRSRITITPDTSKNQFSLQLNSVTPEDTAVYYCVRDGDVGLDAFDIWGQGTMVTVSS
VL: QTVVTQAPSVSVAPGQTARITCGGNNIGSKSVHWYQQKPGQAPVLVVYDDSDRPSGIPERFSGSNSGNTATLTISRVEAGDEADYYCQVWDSTSDHVVFGGGTKVTVL
notes: also called ErbB3-A04; anti-ErbB3 A04
B8: D04 (antibody, V domains shown)
VH: EVQLLESGGGLVKPGGSLRLSCAASGFTFSSYSMNWVRQAPGKGLEWVSSISSSSSYIYYADSVKGRFTISRDNAKNSLYLQMNSLRAEDTAVYYCARGFGEDLFDYWGQGTLVTVSS
VL: QSVLTQPPSVSVAPGKTARITCGGNNIGSKSVHWYQQKPGQAPLLVIYYDTDRPSGIPERFSGSNSENTATLTISGVEAGDEADYYCQVWDIGSDQVVFGTGTKVTVL
B9: D01 (antibody, V domains shown)
VH: EVQLVQSGAEVRKPGASVKVSCKASQYTFTNYHIHWVRQVPGQGLEWMAMINPSNGNTNYGQRFQDRVTLTRDTSTSTAYMELSSLRSEDTAVYLCARDGLTFGDLLAYWGQGTLVTVSS
VL: QSVLTQPPSASGTPGQSVTISCSGSSSNIGGNTVNWYQQFPGTAPKLLMYINNLRPAGVPDRFSGSKSGTSASLVISGLQSEDEADYYCASWDDSLSGLVFGGGTKLTVL
B10: E08 (antibody, V domains shown)
VH: EVQLVESGGGLIQPGGSLRLSCAASGFTVSSNYMSWVRQAPGKGLEWVSVIYSGGSTYYADSVKGRFTISRDNSKNTLYLQMNSLRAEDTAVYYCARDFGVGAVDYWGQGTLVTVSS
VL: QSVLTQPASVSGSPGQSITISCTGTSSDVGGYNFVSWYQQHPGKAPKLMIYDVTNRPSGVSNRFSGSKSGNTASLTISGLQAEDEADYYCSSYTDSSTLDVVFGGGTKVTVL
B11: A01 (antibody, V domains shown)
VH: QVQLVQSGAEVKQPGASVKVSCKASGGTFSSYAISWVRQAPGQGLEWMGGIIPIFGTANYAQKFQGRVTITADESTSTAYMELSSLRSEDTAVYYCATTTMVRGVIMYYFDYWGQGTLVTVSS
VL: QSALTQPPSASGSPGQSVTISCTGTSSDVGAYNDVSWYQHHPGKAPKLIIYEVNHRPSGVPDRFSGSKSDNTASLTISGLQAEDEADYYCSSYTPSNTPLVFGSGTKVTVL
notes: fully human antibody of an IgG class, detected with anti-human IgG (gamma-chain specific); also called ErbB3-A01; anti-ErbB3 A01
B12: D07 (antibody, V domains shown)
VH: QVQLVESGGGLVQPGGSLRLSCVASGFTFSSYWMSWVRQAPGKGLEWVAYINLDGSEKDYVDSVKGRFTISRDNAKNSLYLQMNSLRAEDTALYYCAKAYSSSWLLSGGMDVWGQGTTVTVSS
VL: SYELTQPASVSGSPGQSITISCTGTSSDVGNYNSVSWYQQHPGKAPELMIYDVNNRPSGVSNRFSGSKSGNTASLTISGLQAEDEADYYCSSYTSSSTLVFGGGTQLTVLG
B13: A11 (antibody, V domains shown)
VH: QVQLVQSGRGLVQPGRSLRLSCAASGFTFDEYAMHWVRHAPGKGLEWVAGMSWNGGGIGYADSVKGRFTISRDNSKNTLYLQMNSLRAEDTAVYYCAREGAGGSYPTDAFDIWGQGTTVTVSS
VL: IVLTQSPSSLSASVGDRVTITCQASHDISNYLTWYQHRPGRAPKLLIFDASRLETGVPSRFSGYGSGKDFTFTISGLQPEDFATYYCQHYADLPSFGQGTKLEIK
notes: also called ErbB3-A11
B14: B11 (antibody, V domains shown)
VH: B13 VH
VL: EIVLTQSPSSLSASVGDRVTITCQASHDISNYLTWYQHRPGRAPKLLIFDASRLETGVPSRFSGYGSGKDFTFTISGLQPEDFATYYCQHYADLPSFGQGTKVDIK
B15: A02 (antibody, V domains shown)
VH: EVQLVQSGAEVKKPGASVTVSCKPSGYAFTDYYIHWVRQAAGQGLEWMGWVDPRSGATVYAQNFQGRVTMTRDRSSSTVYMDLSRVTSDDTALYFCGRDNYGIFDYWGQGTLVTVSS
VL: QPVLTQPPSVSAAPGQRVTISCSGSSSNIGNNYLSWYQQLPGTAPKLLIYDDTKRPSGIPDRFSGSKSGTSATLGITGLQTGDEADYYCGTWDGSLDAEVFGTGTKLTVL
notes: also called ErbB3-A02; anti-ErbB3 A02
B16: A08 (antibody, V domains shown)
VH: QMQLVQSGADVKKPGASVRVSCKTSGYTFTSYDINWVRQAPGQGLEWMGWMNPDTGNTAYVQKFQGRVTVTRDTSINTVYMELSGLRSEDTAVYYCAKSGGSSSYDAFDIWGQGTMVTVSS
VL: QSVLTQPPSVSVAPGNTATITCGGDNIGEKTVHWYQQRPGQAPALVIYYDSDRPSGIPERFSGSNSGNTATLTISRVEAGDEADYYCQVWDSSSDHVVFGGGTKLTVL
notes: also called ErbB3-A08

Legend:
[1] = molecular target: T1, endogenous human ErbB3 expressed on human cancer cells (MCF7; A431NS) (human, UniProt P21860 20-1342); assay: flow cytometry on MCF7 cells
T1 construct: whole, on cells; also called Her3; HER3/c-ErbB3
Method: This example illustrates the binding of anti-ErbB3 antibodies to endogenous human ErbB3 expressed on human cancer cells, as assayed by flow cytometry. EC₅₀ values for antibodies were determined as follows.
Her3 expressing MCF7 cells were harvested with enzyme-free Cell Dissociation Buffer (GIBCO) and transferred to V-Bottom 96 well-plates (50,000 cells/well). Cells were incubated on ice for 30 min with serial dilutions of anti-ErbB3 antibodies in FACS buffer (PBS+2% FBS)+NaN₃. After 2 washes in FACS buffer, a 1:1000 dilution of Phycoerythrin conjugated anti-Human IgG (γ-chain specific) was added and incubated for 30 min. Following a final wash, fluorescence intensity was measured on an Intellicyt High Throughput Flow Cytometer (HTFC). Data were analyzed using Graphpad Prism software using non-linear regression fit. Data points are shown as the median fluorescence intensity (MFI) of positively labeled cells +/− Standard Error. EC₅₀ values are reported as the concentration of antibody to achieve 50% of maximal ErbB3 antibodies binding to ErbB3 expressing cells.

[2] = molecular target: T1, endogenous human ErbB3 expressed on …; assay: cell-based or functional assay

T1 sequence (P21860 20-1342): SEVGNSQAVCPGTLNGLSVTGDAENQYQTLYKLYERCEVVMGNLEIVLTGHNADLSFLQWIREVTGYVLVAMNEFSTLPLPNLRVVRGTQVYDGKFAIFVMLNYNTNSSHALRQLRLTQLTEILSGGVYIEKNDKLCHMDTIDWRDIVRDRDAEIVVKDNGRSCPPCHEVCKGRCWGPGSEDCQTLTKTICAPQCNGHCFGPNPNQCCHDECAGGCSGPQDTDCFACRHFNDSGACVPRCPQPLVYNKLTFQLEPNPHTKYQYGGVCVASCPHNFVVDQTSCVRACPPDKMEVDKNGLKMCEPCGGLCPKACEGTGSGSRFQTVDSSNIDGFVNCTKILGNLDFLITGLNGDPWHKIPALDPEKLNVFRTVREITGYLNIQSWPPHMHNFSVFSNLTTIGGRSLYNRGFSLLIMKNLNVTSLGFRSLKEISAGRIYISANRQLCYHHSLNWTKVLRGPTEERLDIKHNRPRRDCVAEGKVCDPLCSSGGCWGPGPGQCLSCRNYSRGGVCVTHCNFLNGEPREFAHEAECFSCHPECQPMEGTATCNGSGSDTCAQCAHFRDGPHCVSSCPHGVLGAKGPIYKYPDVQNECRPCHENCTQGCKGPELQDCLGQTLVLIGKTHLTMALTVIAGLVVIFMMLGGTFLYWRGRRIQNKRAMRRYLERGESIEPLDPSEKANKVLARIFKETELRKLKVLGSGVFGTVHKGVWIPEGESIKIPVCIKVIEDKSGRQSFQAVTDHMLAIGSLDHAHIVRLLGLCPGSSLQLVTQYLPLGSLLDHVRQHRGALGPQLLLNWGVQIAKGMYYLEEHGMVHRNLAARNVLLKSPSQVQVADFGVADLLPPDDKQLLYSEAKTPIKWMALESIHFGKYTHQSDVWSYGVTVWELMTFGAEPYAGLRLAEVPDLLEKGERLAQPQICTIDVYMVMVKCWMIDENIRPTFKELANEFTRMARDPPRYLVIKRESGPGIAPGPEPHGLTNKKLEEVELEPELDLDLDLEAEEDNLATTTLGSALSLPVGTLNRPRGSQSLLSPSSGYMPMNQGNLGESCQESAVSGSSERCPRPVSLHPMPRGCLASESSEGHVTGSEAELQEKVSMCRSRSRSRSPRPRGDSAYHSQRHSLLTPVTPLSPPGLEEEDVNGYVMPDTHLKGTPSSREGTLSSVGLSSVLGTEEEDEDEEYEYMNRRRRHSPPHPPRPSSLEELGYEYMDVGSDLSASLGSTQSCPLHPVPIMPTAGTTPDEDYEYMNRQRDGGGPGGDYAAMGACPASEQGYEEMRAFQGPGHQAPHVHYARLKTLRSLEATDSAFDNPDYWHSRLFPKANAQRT

Row | Binder | EC50 [1] [pM] | IC50, inhibition of ERK1/2 phosphorylation induced by NRG1 beta-1 (phospho-p44/42 MAPK ELISA, MCF7) [2] [pM] | IC50, inhibition of ErbB3 phosphorylation induced by Heregulin (phospho-HER3 ELISA, MCF7) [2] [pM] | IC50, inhibition of NRG1-beta 1 induced MCF7 proliferation (MTT) [2] [pM]
1 | B1 | 5970 |  |  | 
2 | B2 | 427 |  |  | 
3 | B3 | 1930 |  |  | 
4 | B4 | 2010 |  |  | 
5 | B5 | 2650 |  |  | 
6 | B6 | 92.1 |  |  | 
7 | B7 | 163 | 130 | 130 | 
8 | B8 | 24.2 |  |  | 
9 | B9 | 4030 |  |  | 
10 | B10 | 3070 |  |  | 
11 | B11 | 5710 | 460 | 460 | 10600
12 | B12 | 933 |  |  | 
13 | B13 | 219 |  |  | 
14 | B14 | 49 |  |  | 
15 | B15 | 1220 | 120 | 120 | 2800
16 | B16 | 747 |  |  | 12800
